Experimental data published in the nanobody polyreactivity screen of Harvey et al. (2022).

Assay: yeast display, Sf9 membrane polyspecificity reagent, FACS + sequencing; frameworks hold sequencing errors
Procedure, shortened: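 Synthetic nanobody libraries on Saccharomyces cerevisiae BJ5465 were galactose-induced for 36–48 hours, stained 1 hour at 4 °C with 10% biotinylated, detergent-solubilized Sf9 membrane reagent and enriched on streptavidin microbeads. FACS then separated cells into low and high (top ~1%) gates by anti-HA (expression) and streptavidin (reagent binding) fluorescence. Genes were colony-PCR amplified, MiSeq 2 × 250 sequenced and CDR-length filtered. A clone's polyreactivity label is that of its gate of origin.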

Sequence | polyreactivity (PSR sort gate)
QVQLVESGGGLVQAGGSRRLSCAASGSIFYTYLMGWYRPAPGTDRELVAAISASGVRTYYADSVKGRFTISRDNAKITVYLEMNSLKPEDTAVYYCAADRQRADYYWGQGRQVTVSS | high polyreactivity
QVQLVESVGGLVQAGGSLRLSCAASGNTFKYYAMGWYRQAPGKERELVAGITWTGGRTNYADSVKGRFTISRDNAKNTVYLQMNSLKPEDTAVYYCAADYWWYTGYDYWGQGTQVTVSS | high polyreactivity
QVQLLESGGGLVQAGGSLRVSCAASGFTFSRNVMGWYRQAPGKERELVAAITSGSTYYADSVKGRFTISRDNAKNTVYLQMNRLKPEDTAVYYCAKRGRLRNYDYWGQGTQVTVSS | high polyreactivity
QGQLVESGAGLVQAGGSLRLSCAASGITLHGYVMGWYRQAPGKETELVAAITSSGGRTYYADSVKGRFTISRDNAKNTVYLQMNRLKPVDTAVYYCAARIYYYAFSGYYWGQGTQVTVSS | high polyreactivity
QVQLVASGGGLVQSGGSLRLSCASSGSTFFRYAMGWYRHAPGKERELVAAISWSGGPTYYADSVKGRFTISRDNAKNTVFLQMNSLKPQDTAVYYCNAVRQGHILDYWGQGSQVTVSS | low polyreactivity
QVQLVESGGGLVQAGGSLRLSCAASGTTYSINAMGWYRQATGKERELVAAISSGGSTYYADSVKGRFTISRDNAKYTVYLQMNSLIPEDTAVYYCAVDPSWTYWSTYRYDYWGQGTQVTVSS | low polyreactivity
QVQLVESGGGLVQAGGRLRLSCAPSGRTFKYYAMGGYREAPGKERELVASISSGGNTNYADSVKGRFTISRDNATNSVYFQMNSLKPEDTAVYYCAASTWQNRRSYYWGQGTQVTVSS | high polyreactivity
QVQLVESGGGLVQAGGSLRLTCAASGSIFALYAMGWYRQAPGKERELVAANADSVKGRFTISRDNAKNTVYLQMNSLKPEETAVYYCAKDITGGSGLGSWIYSEYDYWGQGTQVTVSS | low polyreactivity
QVQLVESGGGLVQAGGSLRLSCAASGNTFYPNAMGWYRKAPGKERELVAAISSSGGSTYYADSVKGRFTISRDNAKNTVYLQMNSLKPEDTAVYYRAAEFDYPWSGEYYYWGQGTQVTVSS | high polyreactivity
QVQLVESGGGLVQAGGSLRLSCAASGSTFRYYAMAWYREAPGKERELVAAISRRGGSTYYADSVKGRFTISRDNAKNTVYLQMNSLIPEDTAVYYCNAAASTFTSWIRGPGVCYDYWGQGTQVTVSS | high polyreactivity
QVQLVESGGGLVQAGGSLRLSCAASGSTFYKYAMGWYRQAPGQVREVVASISSSGGSTYADSVKGRFTISRDNAKNTVYLQMNSLKPEDTAVYYCARVRWIVPWSGPTDDYWGQGTQVTVSS | low polyreactivity
QVQLVESGGGLVQAGGSLRVICAASGSTFSGNAMGWSRKAPGKERELVAAISRRGGRTYYADSVKGRFTISRDNAKNTVFLQMNRLKPEDTAVYYCAATSGVYRVGIIKYDYWGQGTQVTVSS | high polyreactivity
QVQLVESGGGLVQAGGSLRLSCAASGSIFSTYAMGWYRQAPGKERELVAAITTSGGRTYYADSVKGRFTISRDNAKNTVYVQMNSLKPEETAVYYCNAVRGGRYGLDYWGQGTQVTVSS | high polyreactivity
QVQLVETGGGLVQAGGSLRLSCAASGSSFGSYAMGWYREAPGKERELVAAISSSGASTYYADSVKGRFTISRDNAKITVYLQMNSLKPEDTAVYYCNAARRYPTRGGYWGQGTQVTVSS | high polyreactivity
QVQLVVSGGGLVQAGGSLRLSCAASGFIFGYYAMGWYRQAPGNERALDAAITGRGGSTNYADSVKGRFTISRDNAKNTVYLQMNSLKPEDTAVYYCAKRWRSYSRGGDYWGQGTQVTVSS | high polyreactivity
QVHLVESGGGLVQAGGSLSLSCAASGFTYTSYAMGWYRQAPGTEREFVAAIRRSGSGTYYADSVKGRFTISRVNAKNTVYLQMNSLNPEDTAVYYCAVVPPRLYYHYDYWGQGTQVTVSS | high polyreactivity
QVQLVESGGGLVQAGGSLGLSCAASGRTFSQYAMGWYRQAPGKERELVAAISWSGGYTYYADSVKGRFTISRDNAKNTVYLQMNSLKPEDTAVYYCAAVGKGSARSSYPVLYDYWGQGTQVTVSS | low polyreactivity
QVQLVESGGGLVQAGGSLRLSCAASGLTFIYYAMGWYRQARGKERELVAAISRSGGSTYYADSVKGRFTISRDNAKNTVYLQMNSLKPEDTAVYYCAADGTKYSGRVTGDYWGQGTQVTVSS | high polyreactivity
QVQLVESGGGLVQAGGSLRLSCAASGRTLARNAMGWYRQAPGKERELVAGITSGGSTDYADSVKGRFTISRDNAKNTVYLQMNSLKPEDTAVYYCNRDAGPGGDYWGQGTQVTVSS | low polyreactivity
QVQLVESGGGLVQAGGSLRLSCAASGRIFNYNTMGWYRQAPGKERELVAAINFSGDRTYYADSVKGRFTISRDISKNTVYLQMNSLKPEDTAVYYCAAQGYWYGYQPGNYWGQGTQVTVSS | high polyreactivity
QVQLVESGGGLVQAGGSLRLSCAASGLIFPRYDIGWYRQAPGKESEFVAAITSGGGTYYADSVKGRFTLSRDNAKNTVYLQMNSVKPEDTAVYYCARDHYRHSRYFYRYDYWGQGTQVTVSS | low polyreactivity
QVQLVESGGGLVQAGGSLRLSCAASGFTFGKYDMGWYRQAPGKERELVATITSSGDSTYYADSVKGRFTISRDNAKNTVYLQMNSLKPEDTAVYYCATPYGRHGWFYLYDYWGQGTQVTVSS | low polyreactivity

Sequence | polyreactivity (PSR sort gate)
QVQLVESGGGLVQAGGSLRLTCAPSRSIFVAYTMGWYRQAPGKERELVAAISRGGSTNYADSVKGRFTISRDNAKNTVYLQMNSLTPEETAVYYCAAKVWDGQLLYYWGQGTQVTVSS | low polyreactivity
QVQLVESGGGLVQAGGSLRLSCAASGSTFKPNAMGWYRQAPGKERELVAGISGRGGSTNYADSVKGRFTISRDNAKNTVYLQMNRLKPEDTAVYYCAKDAYPLWLTRYNYWGQGTQVTVSS | low polyreactivity
QVQHVESGGGIVQAGGSLRLSCPASGSIYRKYAMGWSRQTPGKERELVAAIRSSGGSTYYADSVKGRFTISRDNAKNTVYLQMNSLKPEDTAVYYCASTYYRPSRYDYCGQGTQVTVSS | high polyreactivity
QVQLVESGGGLVQAGGSLSLTCAASGSTFPGYPMGWYRQAPGKERELVAAINWRGDSTYYADSVKGRFTISRDNAKNTVYLQMNSLKPEDTAVYYCAAVRGTGTRRYDYWGQGTQVTVSS | high polyreactivity
QVQLVESGGGLVQAGGSLRLSCAASGSNFNRYAMGWYRQAPGKERELVAAITSTGGTNYADSVKGRFTISLDNAKNSVYLQMNSLKPEDTAVYYCAKRWLRWRSNYWGQVTQVTVSS | high polyreactivity
QVQLVESGGGLVQAGGSLRLSCAASGFTFDANAMGWYRQAPGKERELVAAISWSGGSTYYADSVKGRFTISRDNAKNTVYLQMNSLKPEDTAVYYCAARRYSYVGGQGSDYWGQGTKVTVSS | high polyreactivity
QVQLVESGGGLVQAGGSLRLSCDASGRIFGLYDMGWYRQAPGKERELVAAISRGGGSTYYADSVKGRFTISRDNAKNTVYLQMNSLKPEDTAVYYCATGLGYFSRLDYWGQGTQVTVSS | low polyreactivity
QVQLVESGGGLVQAGGSLRLSCAASGSTFSKYAMGWYRQAPGKERELVAAINYGGTSTYYADSVKGRFTISRDNAKNTVYLQMNSLKPEDTAVYYCAVIYRRLYTGGQNPYDYWGQGTQVTVSS | high polyreactivity
QVQLVESGGGLVKAGGSLRLSCASSGRIFRYYTMGWYRQAPGKERELVAAISTSDDSTNYADSVKGRFTISRDNAKNTVYLQMNSLKPEDTAVYYCAADQSRVGSYQDYDYWGQGTQVTVSS | low polyreactivity
QVQLVESGGGLVQAGGSLRLSCAASGSIFYNTMGWYRQAPGKERELVAAISGTRASTYYADSVKGRFTISRDNAKNTVYLQMNSLKPEDTAVYYCAAVPAYPRDYDYWGQGTQVTVSS | low polyreactivity
QVQLVESGGGLVQAGGSLRLSCAASGGTFYRYAMGWYRQAPGKEMELVAAISSRGGSTYYADSVKGRFTISRDNAKNTVYLQMNSLKPEDTAVYYCAALFYLTPWQYDYWGQGTQVTVSS | high polyreactivity
QVQLVESGGGLVQAGGSLRLSCAASGSIFFYYAMGWYRQAPGKERELVATITSGGSTSYADSVKGRFTISRDNAKNTVFLQMNSLKPEDTAVYYCAARKVTKSTYNYWGQGTQVTVSS | low polyreactivity
QVQLVESGGGLVHAGGSLRLSCAASGRIFTIYAMGWYRQAPGKERELVAAISDRGTRTYYADSVKGRFTISRDNAKNTVYLQMNSLKPEETAVYYCATDALYTYGYDYWGQGTQVTVSS | low polyreactivity
QVQLVESGGGLVQAGGSLRLSCAASGRIFGIYAMGWYRQAPGKERVLVAAISRSGGSTYYADSVKGRFTISRDNAKNTVYLQMNSLKPEDTAVYYCAADSRSWTGYYYWGQGTQVTVSS | high polyreactivity
QVQLVESGGGLVQAGGSLRLSCAASGRIFGYYTMGWYRQAPGKERELVAGITRRGGRTYYADSVKGRFTISRDNAKNTVYLQMNSLKPEDTAVYYCDVRSGVNFYYWGQGTQVTVSS | high polyreactivity
QDQLVESGGGLVQAGGSLRLSCAASGSSFGYYAMGWYRQAPGKERELVASISWRGVSTYYADSVKGRFTISRDNAKNTVYIQMNSLKPEDTAVYYCATVYRWSFDYWGQGTQVTVSS | low polyreactivity
QVQLVESGGGLVQAGGSLRLSCAASGIIFRAYAMGWYRQAPGKERELVAAITSRGGSTYYADSVKGRFTISLDNAKNTVYLQKNSLKPEDTAVYYCAADFTIPYWDANFDYWGQGTQVTVSS | low polyreactivity
QVQLVESGGGLVQAGGSLRLSCAASGRTLSTNGMGWYRQAPGKERELVATITRRGGRTYYADSVKGRFTISRDNAKNTVYLQMNSLKPEDTAVYYCATEQADRRVTYNYWGQGTQVTVSS | high polyreactivity
QVQLVESGGGLLQAGRSLRLSCAASGSTFRAYTMGWYRQAPGIERELVAAINSGGSTYYADSVKGRFTISRDNAKNTVYLQMNSLKAEDTAVYYCNRRFYRAVKYGYWGQGTQVTVSS | low polyreactivity
QVQLVESGGGLVQAGGSLRLSCAASGSIFGYYVMGWDRQAPGKERELVAAITRSGSTYYADSVKGRFTISRDNAKNTVYLQMNSLKPEDTAVYYCAADGSYYWYPHTTYDYWGQGTQVTVSS | low polyreactivity
QVQLVESGGGLVQAGGSLRLICAASGSTFERYAMGWYRQAPGKERELVAAIDSRSGSTSYADSVKGRFTISRDNAKNTVYLQMNSLKPEDTAVYYCAKDYYRPWYDRPLGYDYWGQGTQVTVSS | low polyreactivity
